Consider three molecules from PMC4569848 (Nature Communications, 2015).

Common to all, as to conditions: both partners purified
Test [1] has as its target T1, GST-clathrin 1–494 (human, UniProt Q00610 1-494).
T1 construct: clathrin, human, residues 1-494, in pGEX-6P1; source: E. coli BL21, purified (glutathione-Sepharose 4B, eluted with GSH); not shown: GST, N-terminal, kept
T1 sequence (looked up): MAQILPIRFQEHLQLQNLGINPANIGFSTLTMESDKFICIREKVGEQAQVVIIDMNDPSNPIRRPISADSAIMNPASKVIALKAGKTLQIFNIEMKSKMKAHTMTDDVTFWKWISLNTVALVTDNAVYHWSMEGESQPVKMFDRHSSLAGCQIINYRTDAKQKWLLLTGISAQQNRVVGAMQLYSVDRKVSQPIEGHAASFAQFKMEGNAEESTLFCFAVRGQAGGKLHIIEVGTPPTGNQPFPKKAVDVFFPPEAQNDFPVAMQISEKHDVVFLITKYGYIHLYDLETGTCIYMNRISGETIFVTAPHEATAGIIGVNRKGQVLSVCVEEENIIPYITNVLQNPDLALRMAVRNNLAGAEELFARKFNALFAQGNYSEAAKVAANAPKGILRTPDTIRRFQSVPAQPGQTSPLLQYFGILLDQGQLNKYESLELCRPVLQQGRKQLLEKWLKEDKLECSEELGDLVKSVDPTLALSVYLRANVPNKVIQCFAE
The test is described as follows: pull-down; GST-clathrin pull-down of β-arrestin-1 with V2Rpp at protein:V2Rpp ratios 1:0, 1:0.03, 1:0.3, 1:3 and 1:9; western blot for β-arrestin-1, densitometry.

For test [2], the target named is T2, GST-SRC3D (SRC-SH2-SH3-kinase-three domain) (chicken, UniProt P00523 87-531).
T2 construct: c-SRC, chicken, residues 87-531, containing SH3, SH2 and catalytic domains; source: E. coli BL21, purified (glutathione-Sepharose 4B, eluted with GSH); not shown: GST, N-terminal, kept
As to the kind of experiment: pull-down; GST pull-down; 300 nM β-arrestin-1 first mixed with phosphopeptide (equal concentration) 30 min at room temperature in 20 mM Tris-HCl pH 8.0, 150 mM NaCl, 2 mM EDTA, 1 mM DTT; then 10 μM GST-clathrin or GST-SRC 1 h; GST beads 2 h at 4 °C; blot with a β-arrestin-1 antibody.

Test [3] deals with T1, GST-clathrin 1–494. As to the kind of experiment: pull-down; β-arrestin-1-F2Y mutants (300 nM) incubated with equal concentrations of GST-clathrin and V2R-phospho-peptide (V2Rpp), or without peptide; pulled down with GST beads; bound β-arrestin-1 detected by western blot with a β-arrestin-1 antibody.

B1: β-arrestin-1 wild type (natural protein, bovine, UniProt P17870 1-418, looked up)
chain: MGDKGTRVFKKASPNGKLTVYLGKRDFVDHIDLVEPVDGVVLVDPEYLKERRVYVTLTCAFRYGREDLDVLGLTFRKDLFVANVQSFPPAPEDKKPLTRLQERLIKKLGEHAYPFTFEIPPNLPCSVTLQPGPEDTGKACGVDYEVKAFCAENLEEKIHKRNSVRLVIRKVQYAPERPGPQPTAETTRQFLMSDKPLHLEASLDKEIYYHGEPISVNVHVTNNTNKTVKKIKISVRQYADICLFNTAQYKCPVAMEEADDTVAPSSTFCKVYTLTPFLANNREKRGLALDGKLKHEDTNLASSTLLREGANREILGIIVSYKVKVKLVVSRGGLLGDLASSDVAVELPFTLMHPKPKEEPPHREVPEHETPVDTNLIELDTNDDDIVFEDFARQRLKGMKDDKEEEEDGTGSPRLNDR
notes: β-arrestin-1, bovine, full-length wild-type cDNA in pET22b; also called β-arrestin-1-WT; WT; source: E. coli BL21, purified (Ni-NTA, Superdex 200)
Turning to B1, the binding result with GST-clathrin 1–494 [1] is given as “binds”.

B2: β-arrestin-1 (bovine, full-length wild type, C-terminal His tag) (natural protein, UniProt P17870 1-418, looked up)
chain: MGDKGTRVFKKASPNGKLTVYLGKRDFVDHIDLVEPVDGVVLVDPEYLKERRVYVTLTCAFRYGREDLDVLGLTFRKDLFVANVQSFPPAPEDKKPLTRLQERLIKKLGEHAYPFTFEIPPNLPCSVTLQPGPEDTGKACGVDYEVKAFCAENLEEKIHKRNSVRLVIRKVQYAPERPGPQPTAETTRQFLMSDKPLHLEASLDKEIYYHGEPISVNVHVTNNTNKTVKKIKISVRQYADICLFNTAQYKCPVAMEEADDTVAPSSTFCKVYTLTPFLANNREKRGLALDGKLKHEDTNLASSTLLREGANREILGIIVSYKVKVKLVVSRGGLLGDLASSDVAVELPFTLMHPKPKEEPPHREVPEHETPVDTNLIELDTNDDDIVFEDFARQRLKGMKDDKEEEEDGTGSPRLNDR
notes: β-arrestin-1, bovine, full-length wild-type cDNA in pET22b; also called native β-arrestin-1; wild-type β-arrestin-1; source: E. coli BL21, purified (Ni-NTA, Superdex 200)
B2: in test [2], the binding result is “binds”.

B3: β-arrestin-1-V8-F2Y (natural protein, bovine, UniProt P17870 1-418, looked up)
chain: MGDKGTRYFKKASPNGKLTVYLGKRDFVDHIDLVEPVDGVVLVDPEYLKERRVYVTLTCAFRYGREDLDVLGLTFRKDLFVANVQSFPPAPEDKKPLTRLQERLIKKLGEHAYPFTFEIPPNLPCSVTLQPGPEDTGKACGVDYEVKAFCAENLEEKIHKRNSVRLVIRKVQYAPERPGPQPTAETTRQFLMSDKPLHLEASLDKEIYYHGEPISVNVHVTNNTNKTVKKIKISVRQYADICLFNTAQYKCPVAMEEADDTVAPSSTFCKVYTLTPFLANNREKRGLALDGKLKHEDTNLASSTLLREGANREILGIIVSYKVKVKLVVSRGGLLGDLASSDVAVELPFTLMHPKPKEEPPHREVPEHETPVDTNLIELDTNDDDIVFEDFARQRLKGMKDDKEEEEDGTGSPRLNDR
modifications: 3,5-difluorotyrosine (F2Y) at 8
notes: β-arrestin-1, bovine, full-length cDNA in pET22b, amber codon at V8 read as F2Y; source: E. coli BL21 (DE3) with pEVOL-F2YRS and F2Y in the medium, purified (Ni-NTA, gel filtration)
Take B3: the binding result with GST-clathrin 1–494 [3] is on record as “binds”.
